According to the nanobody polyreactivity screen of Harvey et al. (2022):

Test: yeast display, Sf9 membrane polyspecificity reagent, FACS + sequencing; frameworks hold sequencing errors
Outline: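 A nanobody's polyreactivity label depends on the gate it was sorted from. Yeast display cells were stained with 10% biotinylated, detergent-solubilized Sf9 membrane reagent for 1 hour at 4 °C, enriched on streptavidin microbeads and sorted by FACS. The low and high (top ~1%) gates were set on anti-HA fluorescence for expression and streptavidin fluorescence for reagent binding.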

| Sequence | polyreactivity (PSR sort gate) |
| --- | --- |
| QVQLGESGGGLVQAGGSLRLSCAPSGSTFNRFARGWYILAPGNVRELVAAISRSGGSTYYADSVKGRFTISRDNPKTTLYLQMNSLKPEDTAVYYCAADRTGHGFGYWGQGTQVTVSS | high polyreactivity |
| QVQLGESGGGLVQAGGSVRLICAASGGIFEWNAMGWYRQAPGKERELDAAISNTGGSTSYADSVKGRFTISRDNAMNSVYLQMNCLKPEDTAVYYCNRFPPRRYYARYYSWGQGTQVTVSS | high polyreactivity |
| QVQLGESGGGLVQAGGTLRLTCAASGSIFNGNAMGGSRQAPGKERELVAAISRNGGSTYYAVSVKGRFTISRDNAKNTVYLQMNSQKPEDTAVYYCDTDLTVYYSYYWMYWGQGTQVTVSS | low polyreactivity |
| QVQLGESGGGLVQAVGSLRLSCAASGSTFRGNAMGWYRQAPAKARELVAANTSDGSTSYADSVKGRFTISRDNAKNTVYLQMNSLKPEDTAVYYSNADYHQSIWEAVDFEYDYWGQGTQVTVSS | low polyreactivity |
| QVQLGESGVGLVQAGGSLRLSCASSGRTLPVNAMGWYRQAPGKERELVAGISWGGDSTYYADSVKGRFTISRDNAKNSVYLQMNSLKPEDTAVYYCAASSSTWPGDFWGQGTQVTVSS | low polyreactivity |
| QVQLGESRGGLVQAGGSLRLSCAASGIIFTFNAMVWYSQAPGKERELVAGISQGGSSTNYADSVKGRFTISRDNAKNTVDLQRNSLKREVTAVYYCAAYVDIVGDYWVVGYYYWGQGTQVTVSS | low polyreactivity |
| QVQLHESGGGLLQAGGGLRLSCAASGSISSTGFMGWYRQAPGKEREPVAAIAPGTTTYYADSVKGRFTISRDNAKNTVYLQMNSLRPEDTAVYYCAVFTDNRVAFLYWGQGTQVTVSS | low polyreactivity |
| QVQLHESGGGLVHACGSLRPSCAASGSISDSWTMSWYRQAPGKEREFVAGITWGGTTNYADSVKRRFTISRDNAKNNVFLQMNSLKPEDTAVYYCAAVSYYGVDQYRITVYTYEYWGQGTQVTVSS | low polyreactivity |
| QVQLHESGGGLVQAGGGLRLSCAASGSISSTGFMGWYRQAPGKEREPVAAIAQGTTTYYAESVKGRFTISRDNAINTVYLQMNSLRPEDTAVYYCAVFTDNRVAFLYWGQGTQVTVRS | low polyreactivity |
| QVQLHESGGGLVQAGGGLRLSCASSGSISSTGFMGWYRQAPGKEREPVAAIAPGTTTYYADSVKGRFTIRRDNAKNTVYLQMNSLRPEDTAVYYCAVFTDNRVAFLYWGQGTQVTVSS | low polyreactivity |
| QVQLHESGGGLVQAGGSLRLSCAAIGTISYSGPMGWYRQAPGKEREFVAGIGVGSNTNYADSVKGRYTIIRDNAKNTVYLQMNSLKPEDSAVYYCAVGGYAPLGRPYWGQGTQVTVSS | low polyreactivity |
| QVQLHESGGGLVQAGGSLRLSCAASGTISYAGPMGWSRQAPGKEREFVAGIGVGSNTNYADSVKGRYTIIRANAKNTVALQMTCLKPEDTAVYYCAVGGYAPLGRPYWGQGTHVTVSS | low polyreactivity |
| QVQLHESGGGLVQAGGSLRLSCAASGTISYAGPMGWYRQAPGKEREFVAGIGVGSNTNYADRVKGRYTIIRDNAKNTEYLQRNSLKPEDTALYYCAVGGYAPLGRPYWGQGTQVTVSS | low polyreactivity |
| QVQLHESGGGLVQAGGSLRLSCAASGTISYAGPMGWYRQAPGKEREVVAGIGVGSNTIYADSVKGRYTIIRDNAKKTVYLQMKSLKPEDTEVYYCAVGGYAPLGRPYWGQGTQVTVSS | low polyreactivity |
| QVQLHESGGGLVQAGGSLRLSCAASGTISYAGPMGWYRQAPGTEREFVAGIGVGSNTNYADSVKGRYTIIRDNAKNTVYLQMNSLKPEDTAVYYCAVGGYAPLGRPYWGQGTQVTVSS | low polyreactivity |
| QVQLHESGGGLVQAGGSLRRSCAPSGTISYAGPMGWYRQAPGKEREFVAGIGVGSNTNYADSVKGRYTIIRDNAKNTVYLQMNSLKPEDTAVYYCAVGGYAPLGRPYWGQGTQVTVSS | low polyreactivity |
| QVQLIESGGGIVQAGGSLRLSSAASGIIFDWYTMGWYRQATGKERELVAAISWRGGRTYYADSVKGRFTISRDNAKNTVYLQMNSLKAVDTGVYYCAAEAPVQPFYVFNSGIYDLDYWGQGTHVTVSS | low polyreactivity |
| QVQLIESGGGLVQAGGSLRLSCAASGRTFRYNAMGWYRQAPGKERELVAGISTGGSTYYADSVKGRFTISRDNAKNTVYLQMNSLKPEDTAVYYCARYYHARPNGPRSDDYDYWGQGTQVTVSS | low polyreactivity |
| QVQLLDAGGGLDQAGGSLRLRCAASGSIFRYYPMGWYRQAPGKQREMVASISWSGTSTYYADSVKGRFTISRDNAKNTVYLPRNSLKPEDTAVYYCNKDRWGRYYTRYDYWGQGTQVTVSS | high polyreactivity |
| QVQLLDSGGGLVQAGGSLRLSCAASGSTIAYYDMGWYRQAPGKERELVAAISWSGGSTYYADSVKGRFTISRENAKKTVYLQMNSLKPEDTAVYYCNRLLGYFTDSSGSPMGYWGQGTQVTVSS | high polyreactivity |
| QVQLLESGGCLGLAGASLRLSCAASGSTFSTYAMGWYRPAPGKERELVAAITRRGGRTYYADSVKGRFTISRDNAKNTVYLQMNCLKPEDTAVYSCNVLSGLFVQAEYDYWGQGTKVTVSS | high polyreactivity |
| QVQLLESGGGIVQEGGSLRLSCAASGRIFSPYAMGWYRQAPGKERELVAAITWSGVSTYYADSVKGRFTLSRDNAKNSVYFQMNSLKPEDTAVYYSAVDPRGHEGVRYNYWVQGTQVTVSS | low polyreactivity |

| Sequence | polyreactivity (PSR sort gate) |
| --- | --- |
| QVQLLESGGGLFQAGGSLRLICAASGRIFDENAMGWYRQAPRKDREMVAAISWSGGITYYADSVKGRFTISRDYAKNNVYLQMNSLKPEDTAVYYCAADIFQGYTFYQGYPGGAGYWGQGTQVTVSS | low polyreactivity |
| QVQLLESGGGLVKAGGSLRLSCPASGIIFYEYVMGWYRQAPGKERELVAAINRSGGSKYYADSVKGRFTISRDNAKNTVYLQMNSLKPEDTAVYYCAAKPYYFYGMDYWGQGTQVTVSS | high polyreactivity |
| QVQLLESGGGLVLAGGRIRLSCAASGRTYRYTMGWNRQSPGKERELVAAISRSGGSTYYADSVKGRFTISRDNAKNSFYLQMNSLKPEDTAVYYCAKVIYRYNETYDYWGQGTQVTVSS | high polyreactivity |
| QVQLLESGGGLVQAGGSLPVSCAASGSTFDTNDMVWYRQAPGKERELVAAISSGGDYADSVKGRFTISRDNAKNTVYLQMNSLKPEDTAVYYCAKDDTKWGQGTQVTVSS | low polyreactivity |
| QVQLLESGGGLVQAGGSLRISCAASGFIFDYYMGWYRQAPGKERELVARISYTGGSTYYADSVKGRFTISRDNAKNTVYLQMNSLKPEDTAVYYCATRGAEAERFASYEFDYWGQGTQVTVSS | low polyreactivity |
| QVQLLESGGGLVQAGGSLRLRCAASGTIFRISYMGSYRHAPGKEREFVAAITYCANTYYADSGKGRFTISRDNAKKTVYLHMNSLKPEDTAVYYCAVPPVKETFLDYWGQGTQVTVSS | low polyreactivity |
| QVQLLESGGGLVQAGGSLRLRCASSGRIFVYYAMGWYRQAPGKERELVAANRWTGGSTYYADSVKGRFTISRDNAKNTVYLQMNSLKPEDTAVYYCATVNRYGHFNYWGQGTQVTVSS | high polyreactivity |
| QVQLLESGGGLVQAGGSLRLSCAASGFSFEYYAMGWSRQAPGKDRELVAAIRSVSGTNYADSVKGRFTISRDNAKNTVYLQMNSQKPEDTAVYYCAKLRYPYLFLDDSEYWGQRTQVTVSS | low polyreactivity |
| QVQLLESGGGLVQAGGSLRLSCAASGFTFKRNAKGWYRQAPGKEREFVAAITSSGGSTYYADSVKGRFTISRDNAKNTVYLQMNSLKPEDTAVYYCAARSKGAYPTRPLPGGYGYWGQGTQVTVSS | high polyreactivity |
| QVQLLESGGGLVQAGGSLRLSCAASGFTFWYYAMVWYRQAPGKERELVAAITRGGSTNYADSVKGRFTISRDNAKNTVYLQMNSLKPEDTAVYYCAATIYDYNRAGKYYYWGQGTQVTVSS | high polyreactivity |
| QVQLLESGGGLVQAGGSLRLSCAASGIIFGYYAMGWYRQAPGKERELVAAITWSGGSTYYADSVKGRFTISRDNAKNTVYLQMNSLKPEDTAVYYCNADDDGRVSSTIVEYWVQGTQVTVSS | low polyreactivity |
| QVQLLESGGGLVQAGGSLRLSCAASGITFLLNAMGWYRQAPGKERELVAAISRSGGRTYYADSVKGRFTISRDNAKNTVYLQMNSLKPEDTAVYYCAVVTQFGDGYYWGQGTQVTVSS | high polyreactivity |
| QVQLLESGGGLVQAGGSLRLSCAASGLIFRSYAMGWYRQAPGKERELVARISIRGGSTYYADSVKGRFTISRDNAKNTVYLQMNCLKPEDTAVYYCAAVGYFGGYRYDYWGQGTQVTVSS | high polyreactivity |
| QVQLLESGGGLVQAGGSLRLSCAASGNIFQVNAMGWYRQAPGKERELVASISRRGGSTNYADSVKGRFTISRDNAKNTVYLQMNSLKPEDTAVYYCAAVARRGSYLGQRLDYWGQGTQVTVSS | high polyreactivity |
| QVQLLESGGGLVQAGGSLRLSCAASGRIFRAYAMGWYRQAPGKERELVAAISWRYGSTYYADSVKGRFTISRDNAKNTVYLQMNSVKPEDTAVYYCAAEYDWPGYDYWGQGTQVTVSS | high polyreactivity |
| QVQLLESGGGLVQAGGSLRLSCAASGRILRINTMGWYRQAPGKERELVAAISWSGGTTYYADSVKGRFTISRDNAKNTVYLQMNSLKPEDTAVYYCNKAIWYAEYDYWGQGTQVTVSS | low polyreactivity |
| QVQLLESGGGLVQAGGSLRLSCAASGRTFTRNAMGWYRQAPGKERELVAAISYRVGSTYYADSVKGRFTISRDNAKNTVYLQMNSLKPEDTAVYYCATGRGHSYGGDDYWGQGTQVTVSS | high polyreactivity |
| QVQLLESGGGLVQAGGSLRLSCAASGRTFYFYVMGWYRQAPGKERELVARISWSGGSTYYADSVKGRFTISRDNSKNTVYLQMNSLKPEDTAVYYCNTVDSIPIGSGLYYYWGQGTQVTVSS | low polyreactivity |
| QVQLLESGGGLVQAGGSLRLSCAASGRTSYIYSMGWYRKAPGKEREFVADITWSGGSTYYADSVKGRFTISRDNAKNTVYLQMNSLKPEDTAVYYCNADLLSWWGVEYYYWGQGTQVTVSS | high polyreactivity |
| QVQLLESGGGLVQAGGSLRLSCAASGSIFDYNAMGWYRQAPGNERELVADITISDDSTYYADSVKGRFTISRDNAKNTVNLQMNSRQPEDTAVYYCAADIKYYWYYYYWAYAYDYWGQGTQVTVSS | high polyreactivity |
| QVQLLESGGGLVQAGGSLRLSCAASGSIFGLYAMGWYRQAPGKERELVAALTWSSGNTYYADSVKGRFTISRDNAKNTVYLQMNSLKPEDTAVYYCSARVYRYGAMDYWGQGTQVTVSS | high polyreactivity |
